What was measured:
Human c-Met-Flis-Fc ECD [1] = target: T1, Human c-Met-Flis-Fc ECD (human); experiment: ELISA, coated ECD-Fc, antibody 0.060 ng/mL
T1 construct: also called human c-Met extracellular domain (ECD)-Fc-Flis fusion; Human cMet-ECD-Fc-Flis

PlexinA2-ECD-Fc [2] = target: T2, PlexinA2-ECD-Fc (human, UniProt O75051 35-1237); experiment: ELISA, coated ECD-Fc, antibody 0.060 ng/mL
T2 construct: extracellular domain; Bought reagent
T2 sequence (looked up): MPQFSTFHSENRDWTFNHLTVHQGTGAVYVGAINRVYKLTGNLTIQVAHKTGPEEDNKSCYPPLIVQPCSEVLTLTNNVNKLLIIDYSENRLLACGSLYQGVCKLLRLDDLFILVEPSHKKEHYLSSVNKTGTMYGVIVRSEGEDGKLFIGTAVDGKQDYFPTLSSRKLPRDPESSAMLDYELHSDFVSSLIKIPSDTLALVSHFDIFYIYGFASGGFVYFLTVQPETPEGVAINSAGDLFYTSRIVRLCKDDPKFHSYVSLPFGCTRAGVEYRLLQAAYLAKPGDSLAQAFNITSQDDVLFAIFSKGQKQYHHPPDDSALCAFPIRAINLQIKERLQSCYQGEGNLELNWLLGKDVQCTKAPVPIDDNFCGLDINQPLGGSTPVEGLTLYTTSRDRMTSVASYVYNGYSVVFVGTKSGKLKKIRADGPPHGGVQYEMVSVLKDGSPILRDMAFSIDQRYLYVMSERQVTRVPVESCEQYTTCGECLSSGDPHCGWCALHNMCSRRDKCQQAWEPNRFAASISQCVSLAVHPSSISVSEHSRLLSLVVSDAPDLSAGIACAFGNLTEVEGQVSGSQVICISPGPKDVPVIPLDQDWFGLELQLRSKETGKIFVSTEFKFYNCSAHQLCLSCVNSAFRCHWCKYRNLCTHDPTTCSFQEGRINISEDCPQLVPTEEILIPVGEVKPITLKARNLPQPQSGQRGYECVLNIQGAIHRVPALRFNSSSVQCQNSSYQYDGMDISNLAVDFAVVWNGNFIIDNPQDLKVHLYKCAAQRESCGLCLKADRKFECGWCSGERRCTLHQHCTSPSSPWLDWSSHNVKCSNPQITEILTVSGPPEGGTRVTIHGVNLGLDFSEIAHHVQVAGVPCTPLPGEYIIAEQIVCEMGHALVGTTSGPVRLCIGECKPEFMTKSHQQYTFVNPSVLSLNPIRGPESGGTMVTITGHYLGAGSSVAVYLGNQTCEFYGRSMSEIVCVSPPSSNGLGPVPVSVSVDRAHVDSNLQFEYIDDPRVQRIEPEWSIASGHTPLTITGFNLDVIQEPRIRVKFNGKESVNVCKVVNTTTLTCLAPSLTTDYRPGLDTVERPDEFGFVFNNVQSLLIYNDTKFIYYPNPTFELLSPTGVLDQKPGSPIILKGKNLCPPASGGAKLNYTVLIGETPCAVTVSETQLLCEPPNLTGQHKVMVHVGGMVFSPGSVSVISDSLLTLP

RON-ECD-Fc = target: T3, RON-ECD-Fc (human, UniProt Q04912 25-957); experiment: ELISA, coated ECD-Fc, antibody 100000.000 ng/mL
T3 construct: extracellular domain; Bought reagent; not shown: Fc part of the bought fusion
T3 sequence (looked up): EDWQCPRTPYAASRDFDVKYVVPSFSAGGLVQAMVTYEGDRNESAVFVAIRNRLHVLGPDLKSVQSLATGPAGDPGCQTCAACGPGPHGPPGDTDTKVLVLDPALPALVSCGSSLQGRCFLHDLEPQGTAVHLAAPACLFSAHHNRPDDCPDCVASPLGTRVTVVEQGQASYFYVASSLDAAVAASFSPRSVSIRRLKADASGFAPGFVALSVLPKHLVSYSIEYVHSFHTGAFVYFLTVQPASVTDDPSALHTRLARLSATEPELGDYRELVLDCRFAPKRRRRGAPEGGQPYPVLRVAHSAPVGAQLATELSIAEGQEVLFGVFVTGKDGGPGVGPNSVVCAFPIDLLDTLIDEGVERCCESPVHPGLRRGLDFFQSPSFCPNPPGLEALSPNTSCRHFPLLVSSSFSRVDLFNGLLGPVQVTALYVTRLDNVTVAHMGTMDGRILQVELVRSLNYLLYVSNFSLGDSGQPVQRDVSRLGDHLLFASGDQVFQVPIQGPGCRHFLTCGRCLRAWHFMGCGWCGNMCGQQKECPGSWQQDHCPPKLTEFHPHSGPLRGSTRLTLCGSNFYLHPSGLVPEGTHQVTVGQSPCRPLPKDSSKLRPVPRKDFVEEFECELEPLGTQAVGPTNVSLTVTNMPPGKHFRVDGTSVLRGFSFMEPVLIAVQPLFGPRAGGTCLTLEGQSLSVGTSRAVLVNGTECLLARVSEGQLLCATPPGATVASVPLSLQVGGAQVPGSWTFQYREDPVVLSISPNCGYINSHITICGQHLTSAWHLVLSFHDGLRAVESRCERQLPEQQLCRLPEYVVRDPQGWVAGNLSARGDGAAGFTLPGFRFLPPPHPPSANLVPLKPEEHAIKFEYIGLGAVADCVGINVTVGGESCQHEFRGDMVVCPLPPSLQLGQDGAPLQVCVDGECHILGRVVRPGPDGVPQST
Protocol: (§1) Wells of 96-well EIA/RIA high binding plates (Costar, #2592) are coated with 100 μL of 1 μg/mL human c-Met extracellular domain (ECD)-Fc-Flis fusion (SEQ ID NO:72), RON-ECD-Fc (R&D Systems, #1947-MS), or PlexinA2-ECD-Fc (Abnova, Taipei, Taiwan #H00005362-P01) in coating buffer (BioFX Labs, # COAT-1000-01) overnight at 4° C. […] After the plates are washed, 100 μL/well of substrate solution (BioFx, #TMBW-1000-01) are added and the plates are incubated for 10 min. at room temperature. 100 μL/well of stop solution (BioFx, # LSTP-1000-01) are added to stop the reaction. The colorimetric signals are developed and read at 450 nm using a SpectraMax 190 plate reader (Molecular Devices, Sunnyvale, Calif.). c-Met antibody binding to c-Met, RON and PlexinA2 ECDs is proportional to color signal production.

Human c-Met-Flis-Fc ECD [3] = target: T1, Human c-Met-Flis-Fc ECD; experiment: ELISA, coated ECD-Fc, antibody 100000.000 ng/mL
Protocol: as §1

PlexinA2-ECD-Fc [4] = target: T2, PlexinA2-ECD-Fc; experiment: ELISA, coated ECD-Fc, antibody 100000.000 ng/mL
Protocol: as §1

T1 sequence (chain, as listed by the source limits assumed): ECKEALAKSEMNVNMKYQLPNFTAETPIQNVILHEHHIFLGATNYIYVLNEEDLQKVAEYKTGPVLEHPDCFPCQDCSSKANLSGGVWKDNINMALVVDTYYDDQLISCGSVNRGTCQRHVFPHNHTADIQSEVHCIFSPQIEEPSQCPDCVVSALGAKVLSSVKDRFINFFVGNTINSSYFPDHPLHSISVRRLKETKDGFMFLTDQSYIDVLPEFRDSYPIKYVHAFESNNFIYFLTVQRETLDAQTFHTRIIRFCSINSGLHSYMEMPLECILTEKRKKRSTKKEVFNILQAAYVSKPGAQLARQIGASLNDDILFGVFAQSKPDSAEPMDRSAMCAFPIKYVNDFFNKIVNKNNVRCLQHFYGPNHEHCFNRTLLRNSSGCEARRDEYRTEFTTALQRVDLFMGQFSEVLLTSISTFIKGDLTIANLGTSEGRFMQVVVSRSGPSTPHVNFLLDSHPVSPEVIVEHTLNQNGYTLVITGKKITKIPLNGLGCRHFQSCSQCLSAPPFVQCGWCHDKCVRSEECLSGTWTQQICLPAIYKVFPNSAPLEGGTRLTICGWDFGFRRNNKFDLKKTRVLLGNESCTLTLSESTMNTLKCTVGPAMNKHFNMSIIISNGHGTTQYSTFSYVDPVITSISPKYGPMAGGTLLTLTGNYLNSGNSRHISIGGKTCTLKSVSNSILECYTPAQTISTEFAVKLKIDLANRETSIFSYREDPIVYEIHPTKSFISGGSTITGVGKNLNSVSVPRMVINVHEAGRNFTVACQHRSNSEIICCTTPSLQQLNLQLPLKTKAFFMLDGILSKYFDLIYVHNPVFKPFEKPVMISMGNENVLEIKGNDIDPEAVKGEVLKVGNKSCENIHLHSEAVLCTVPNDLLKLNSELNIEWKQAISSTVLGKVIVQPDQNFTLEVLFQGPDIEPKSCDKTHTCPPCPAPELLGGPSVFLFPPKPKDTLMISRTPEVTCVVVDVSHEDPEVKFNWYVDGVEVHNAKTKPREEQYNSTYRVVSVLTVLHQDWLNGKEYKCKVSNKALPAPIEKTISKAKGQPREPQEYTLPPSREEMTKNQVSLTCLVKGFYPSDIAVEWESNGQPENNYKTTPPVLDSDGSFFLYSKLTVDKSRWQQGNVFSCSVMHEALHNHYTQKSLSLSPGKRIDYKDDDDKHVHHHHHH

Average A450 nm (Human c-Met-Flis-Fc ECD [1]): 0.551 A450 nm | Average A450 nm (PlexinA2-ECD-Fc [2]): 0.096 A450 nm | Average A450 nm (RON-ECD-Fc): 0.17 A450 nm | Average A450 nm (Human c-Met-Flis-Fc ECD [3]): 4 A450 nm | Average A450 nm (PlexinA2-ECD-Fc [4]): 0.171 A450 nm
B1: C8-6 (antibody, human IgG2, kappa, V domains shown)
VH: QVQLVQSGAEVKKPGASVKVSCKASGYTFTDYYMHWVRQAPGQGLEWMGRVNPNRGGTTYNQKFEGRVTMTTDTSTSTAYMELRSLRSDDTAVYYCARTNWLDYWGQGTTVTVSS
VL: DIQMTQSPSSLSASVGDRVTITCSVSSSVSSIYLHWYQQKPGKAPKLLIYSTSNLASGVPSRFSGSGSGTDFTLTISSLQPEDFATYYCIQYSGYPLTFGGGTKVEIKR
notes: Called IgG4, kappa; also called Mab C8-6
